Results reported in the supplement of paper PMC7877785.
± gives the uncertainty stated by the source.

Assay: self-splicing fitness, log relative to wild type (ln ratio); higher = more splicing; Tetrahymena group I intron in knt gene, E. coli kanamycin selection, DiMSum; sequences stand for … in CUCUCU…GGAGGGAAAAGUUAUCAGGCAUGCACCUGGUAGCUAGUCUUUAAACCAAUAGAUUGCAUCGGUUUAAAAGGCAAGACCGUCAAAUUGCGGGAAAGGGGUCAACAGCCGUUCAGUACCAAGUCUCAGGGGAAACUUUGAGAUGGCCUUGCAAAGGGUAUGGUAAUAAGCUGACGGACAUGGUCCUAACCACGCAGCCAAGUCCUAAGUCAACAGAUCUUCUGUUGAUAUGGAUGCAGUUCACAGACUAAAUGUCGGUCGGGGAAGAUGUAUUCUUCUCAUAAGAUAUAGUCGGACCUCUCCUUAAUGGGAGCUAGCGGAUGAAGUGAUGCAACACUGGAGCCGCUGGGAACUAAUUUGUAUGCGAAAGUAUAUUGAUUAGUUUUGGAGUACUCGUGGUCG
Outline: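 DiMSum derived fitness as the error-weighted combination of fold changes across replicates, kanamycin versus no kanamycin, normalised to wild type. E. coli BL21(DE3) held the library, which randomised all eight P1ex-region intron nucleotides within the knt kanamycin-resistance gene on pET-22b(+). Six replicate transformations grew overnight at 37°C or 30°C on LB agar with or without 25 μg/mL kanamycin, also containing 100 μg/mL carbenicillin, 50 μM IPTG and 0.2% rhamnose, and pooled colonies were amplicon-sequenced on an Illumina HiSeq 2500.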

Row | Sequence | self-splicing fitness (ln) (30 °C) | self-splicing fitness (ln) (37 °C)
1 | GGGAAGCAAUAUUACGAGAG | -3.24 ± 0.27 | -2.46 ± 0.24
2 | CAGUAGCAAUAUUACGUUUU | -3.8 ± 0.24 | -3.01 ± 0.24
3 | CACUAGCAAUAUUACGAAUC | -3.91 ± 0.19 | -2.58 ± 0.22
4 | CGCUAGCAAUAUUACGGAGU | -3.65 ± 0.27 | -2.42 ± 0.25
5 | AGCUAGCAAUAUUACGGAAG | -2.35 ± 0.086 | -1.34 ± 0.11
6 | AGAAAGCAAUAUUACGGCGA | -0.0252 ± 0.17 | -1.02 ± 0.14
7 | AUAGAGCAAUAUUACGGCAU | 0.19 ± 0.084 | 0.738 ± 0.12
8 | GUAUAGCAAUAUUACGGUCG | -2.06 ± 0.15 | 0.0791 ± 0.15
9 | CCACAGCAAUAUUACGAUGU | -4.02 ± 0.24 | -1.89 ± 0.15
10 | UGUAAGCAAUAUUACGGGGC | -3.63 ± 0.23 | -3.24 ± 0.25
11 | CCCGAGCAAUAUUACGUGAU | -4.13 ± 0.28 | -2.22 ± 0.19
12 | CUCUAGCAAUAUUACGGCAG | -2.41 ± 0.28 | -2.72 ± 0.44
13 | CAGCAGCAAUAUUACGCGGU | -1.52 ± 0.1 | -1.74 ± 0.18
14 | CUGCAGCAAUAUUACGGGGC | -3.94 ± 0.22 | -1.83 ± 0.18
15 | GGGUAGCAAUAUUACGGACA | -0.93 ± 0.093 | -0.223 ± 0.097
16 | UUGUAGCAAUAUUACGUACU | -0.641 ± 0.12 | -0.216 ± 0.14
17 | GCCGAGCAAUAUUACGUUAA | -3.34 ± 0.27 | -1.78 ± 0.18
18 | CAAGAGCAAUAUUACGGGCU | – | -2.6 ± 0.34
19 | ACUUAGCAAUAUUACGUUAA | -4.2 ± 0.46 | -2.02 ± 0.2
20 | CAUAAGCAAUAUUACGCGGG | -1.6 ± 0.17 | -2.18 ± 0.25
21 | GCUCAGCAAUAUUACGAGCA | -2.63 ± 0.16 | -1.09 ± 0.11
22 | UACAAGCAAUAUUACGCAUA | -2.07 ± 0.11 | -0.871 ± 0.11
23 | ACCUAGCAAUAUUACGACGA | -0.405 ± 0.11 | -0.784 ± 0.093
24 | AUGUAGCAAUAUUACGGCCA | -0.669 ± 0.21 | -0.586 ± 0.22

Row | Sequence | self-splicing fitness (ln) (30 °C) | self-splicing fitness (ln) (37 °C)
25 | CUCUAGCAAUAUUACGGAGC | -3.72 ± 0.27 | -3.48 ± 0.26
26 | AAACAGCAAUAUUACGUGCU | -3.52 ± 0.2 | -1.91 ± 0.14
27 | CGCAAGCAAUAUUACGUGCU | -0.881 ± 0.069 | -0.489 ± 0.081
28 | GAGGAGCAAUAUUACGGGUC | -2.98 ± 0.17 | -3.24 ± 0.32
29 | CAACAGCAAUAUUACGUGCG | -0.886 ± 0.053 | -0.129 ± 0.074
30 | AUACAGCAAUAUUACGUAAC | -3.13 ± 0.11 | -1.25 ± 0.077
31 | GGGAAGCAAUAUUACGUUAU | -2.98 ± 0.26 | -1.33 ± 0.18
32 | UCGGAGCAAUAUUACGUGCU | – | -2.66 ± 0.27
33 | UCCGAGCAAUAUUACGCGAA | -2.94 ± 0.4 | -1.84 ± 0.4
34 | AAAGAGCAAUAUUACGGGAC | -3.56 ± 0.38 | -1.96 ± 0.22
35 | UCCAAGCAAUAUUACGUCAG | -3.02 ± 0.15 | -1.69 ± 0.13
36 | UCAUAGCAAUAUUACGUCGG | -1.34 ± 0.12 | -0.0833 ± 0.11
37 | AUCGAGCAAUAUUACGUGGG | -4.14 ± 0.33 | -2.42 ± 0.24
38 | CCUUAGCAAUAUUACGUCAG | -3.79 ± 0.35 | -2.74 ± 0.31
39 | CUUAAGCAAUAUUACGACAG | 0.325 ± 0.096 | -0.266 ± 0.12
40 | UCAAAGCAAUAUUACGUGAG | -0.64 ± 0.046 | -0.25 ± 0.071
41 | AAUUAGCAAUAUUACGGGUC | -1.55 ± 0.24 | -0.486 ± 0.24
42 | AUACAGCAAUAUUACGCCCA | -0.142 ± 0.1 | -0.545 ± 0.14
43 | UAUCAGCAAUAUUACGCUUC | -2.82 ± 0.23 | -2.09 ± 0.27
44 | CGGGAGCAAUAUUACGGCGG | -1.17 ± 0.11 | -1.09 ± 0.19
45 | CGCAAGCAAUAUUACGUCCA | -1.46 ± 0.089 | -0.939 ± 0.1
46 | CUAAAGCAAUAUUACGAUGA | -2.57 ± 0.11 | -0.323 ± 0.1
47 | UCCAAGCAAUAUUACGAAUU | -3.42 ± 0.14 | -2.5 ± 0.16
48 | GCCGAGCAAUAUUACGCCUC | -2.91 ± 0.42 | -1.88 ± 0.4
